The series concerns the molecule itself. Nature of the series: sedimentation equilibrium, self-association in solution without DNA. On the procedure:
Sedimentation Equilibrium. Peptide samples at three concentrations, ranging from ≈10 µM to ≈100 µM, were centrifuged to equilibrium in a Beckman Optima XL-A at 20,000 and 30,000 rpm at 4° C. in a buffer containing 15 mM Tris, pH 7.8, 150 mM KCl, 5 mM MgCl_2, 20 µM ZnSO_4, and 0.2 mM DTT. Solvent density and partial specific volumes of peptides were calculate at described (13). The sedimentation data were analyzed by methods described in refs. 14 and 15, using the program NONLIN (16).

B1: Zif12 peptide (amino acids 2-59 of Zif268, Gly-Ser dipeptide at the N terminus) (other)
chain: not shown
notes: range 2-59; No N-terminal peptide extension; also called isolated Zif12 domain; Zif1-Zif2 construct
Regarding B1, the binding result was “no binding (tested: ≈100 µM)”.

The values above are taken from patent US7943731 (MIT, dated 2011).
